From PMC4158905
Each block holds one substance with its values, some of them ahead of it.

Legend:
[1] = biological target: dynein heavy chain (DYNC1H1) (human) (UniProt Q14204); assay: SEC-MALS; purified recombinant dynein complex; single peak of approximately 1.40 MDa against 1.42 MDa expected for a dimeric complex of all six chains
[2] = biological target: recombinant human cytoplasmic dynein 1 complex (human) (UniProt Q14204)
[3] = biological target: recombinant human cytoplasmic dynein 1 complex (human) (UniProt Q14204); assay: single-molecule two-colour co-localisation (TIRF microscopy); roughly equimolar TMR–dynein and Alexa647–dynein mixed, puncta on microtubules scored for both dyes in kymographs, 2.5 mM ATP; done without and with dynactin and BICD2N

stoichiometry N [1]: 2
Substance: dynein heavy chain (DYNC1H1), Q14204 1-4646

proportion of TMR–dynein complexes with unidirectional minus end-directed movement on microtubules, with dynactin and BICD2N at 20 BICD2N dimers: 1 dynein complex: 2 dynactin complexes [2]: 23%
Substance: native dynactin complex from pig brains (from UniProt A0A287B8J2 1-1281; A0A5G2QD80 1-405)

percent of dynein puncta that contained both dyes [3]: 6%
Substance: recombinant human cytoplasmic dynein 1 complex (from UniProt Q14204 1-4646; O43237-1 1-492; P63172 1-113; Q9NP97-1 1-96; P63167 1-89)
